Assay results reported in the nanobody polyreactivity screen of Harvey et al. (2022).

test: yeast display, Sf9 membrane polyspecificity reagent, FACS + sequencing; frameworks hold sequencing errors
How it was run: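 A synthetic nanobody library was expressed on Saccharomyces cerevisiae BJ5465 by galactose induction for 36–48 hours. The library was stained for 1 hour at 4 °C with 10% biotinylated, detergent-solubilized Sf9 membrane reagent and enriched with streptavidin microbeads before FACS. Low and high (top ~1%) gates were set on anti-HA fluorescence for expression and streptavidin fluorescence for reagent binding, and each polyreactivity label reflects the gate of origin.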

Row | Sequence | polyreactivity (PSR sort gate)
1 | QVQHVESGGGLVQAGGSLRLSCAASVSIFYDYAMGWYRQAPGKERELVAAINKSGGSTYYADSVKGRFTISRDNAKNTVYLQMNSLKPEDTAVYYCIARKRLGPVRYGYWGQGTQVTVST | high polyreactivity
2 | QVQHVESGGGLVQAGGSLRLSCAASVSIFYGYAMGWSRQAPGKERELVATIRFITGSTYYADSVKGRFTISRDNAKNTVYLQMNSRKPEDTAVYYCAAVYVGYYDNYDYWGQGTQVTVSS | low polyreactivity
3 | QVQHVESGGGLVQAGGSLRLSCAAYGRTFGYYAMGWNRQAPGKDRELVAAITSGGRTNYADSVKGRFTISRDNAKNTVYLQMISQKPEDTAVYYCAATWNWPLSERKFNYWGQGTQVTVSS | low polyreactivity
4 | QVQHVESGGGLVQAGGSLRLSCASSGRIFYFYAMGWYRQAPGKLRELVAAISTSGGSTYYADSVKGRFKISRDNATNTVYLQMNSLKPEDPAVYYCAGRFRYYGSEYDYWGQGTQVTVSS | low polyreactivity
5 | QVQHVESGGGLVQAGGSLRLSCASSGSIFVGNAMGWYRQAPGKERELVAAISRRGGRPYYADSVKGRFTISRDKAKNTVYLQMNSLKPEDTAVYYCAAEYTYQNRIRFDYWGQGTQVTVSS | high polyreactivity
6 | QVQHVESGGGLVQAGGSLRLSCDAYGSTFYYYAMGWYRQAPGKERELVASISRGGSTNYAYSVKGRFTISRDNAKNTVYLQMNSLKAEDTAVYYCNADRYLRPKSWWTVYYERDYWGQGTQVTVSS | low polyreactivity
7 | QVQHVESGGGLVQAGGSLRLSCSASGFTLTAYAMGWSRQPPGKEREFVAAISTSGTRTYYADSVKGRFTISRDNAKNTVYLQMNSLKQEDTAVYYCAARYSGYQYWKFNYWGQGTQVTVSS | high polyreactivity
8 | QVQHVESGGGLVQAGGSLRLSCSASGRTFSSYVMGWYRQAPGKERELVATITSGGITYYADSVKGRFTISRDNAKNTVYLQMNSLKPEDTAVYYCARAPPGDRFVRYDYWGQGTQVTVSS | high polyreactivity
9 | QVQHVESGGGLVQAGGSLRLSFAASGSTFAWYPMGWYRQAPGKERELVAAITRDGSTYYADSVKGRFTISRDNAKNTVYLQMNSLKPEDTAVYYCAADLSYWRGGHSRYYWGQGTQVTVSS | low polyreactivity
10 | QVQHVESGGGLVQAGGSLRLSSAASGGTFNVYAMGWYRQAPGKESELVAAIRWSGGSTYYADSVKGRFTISRDNAKNTVYLQMNSLKPEDTAVYFCAARFYGRSQTYGSWGLGTQVTVSS | high polyreactivity
11 | QVQHVESGGGLVQAGGSLRLSSAASGHTFHRYAMGWYRQARWKESELVAAISDSGSSSYYADSVKRRFTISRDYAKYTVYLQMNSLKPEDTALYYCAAVSGFFDQYDYWGQGTQVTVSS | low polyreactivity
12 | QVQHVESGGGLVQAGGSLRLTCAASGFIFVIYAMGWYRTAPGKERELVAAITESGDRTYYADSVKGGFTISRDNAKNTVYLQMNSLKPEDTAVYYCNALLSYGYHAAYGYWGQGTQVTVSS | high polyreactivity
13 | QVQHVESGGGLVQAGGSLRLTCAASGRIIAGYAMGWYRQATGKEREMVAAISSRGGSTYYADSVKGRFSISRDNAKNTVDLQMNSLKPVDTAVYYCAKRSWYSYVYGSGDYWGQGTQVTVSS | high polyreactivity
14 | QVQHVESGGGLVQAGGSRRLSCAASGSIFFYAMGWYRQAPAKERVLVAAITSAGSTNFADSVKGRFTISRDNAKNTVYLQMYSLKPEDTAVYYCAAGYVGYSWSYPYGWVEYDYWGQGTQVTVSS | high polyreactivity
15 | QVQHVESGGGLVQAGRSLRLSCAASGILRRYAMGWYIQERGKERELVAAITRTGGRTYYADSVKGRFTISRDNAKNTVYLQMNSLKPEDTAVYYCATDRYVVSGMDYWGQGTQVTVSS | high polyreactivity
16 | QVQHVESGGGLVQAGVSLRLSCAASGLTFTRYAMGWDRQAPGKERELVAAISWSGGSTYYADSVKGRFTISRDNAKNTVYLQMNSLKPEDTAVYYCAAEPYKQYTGYYYSGFEFWGQGTQVTVSS | high polyreactivity
17 | QVQHVESGGGLVQAGVSLRLSCAASGSIFVYYAMGWYRQAPGKERELVASISESDGSTSYADSVKGRFTISRDNAMNTVYLQMNSLKPEDTAVSYCAADPYFYWYSPSFDYWGQGTQVTVSS | low polyreactivity
18 | QVQHVESGGGLVQAGVSLRLSCAATGRIFGRYVMGWYRQAPGKETELVARIRRNVGSTYYADSVKGRFTISRDNAKYPVYLQMNSLKPEDTAVYYCAAESYDTWRRYESWGQGTQVTVSS | high polyreactivity
19 | QVQHVESGGNLFKAGGSLRLSCAASGITFVYNAMGWYRPAPGKERELVDGITWSGSSTYYADSVKGRFTISRDNAKNTVYFHMNSLKPDDTAVYYCDAYLYDRTTRYTYYYWGQGTQVTVSS | high polyreactivity
20 | QVQHVESGRGLVQAGGSLRLSCDASGFTFRSYPIGWYRHAPGKERELVAGITWRGGRTYYADSVKGRFTISRDNAKNTVYLQMNSLKPEDTAVYNCAKLYRYIYGGMDYWGQGTQVTVSS | high polyreactivity

Row | Sequence | polyreactivity (PSR sort gate)
21 | QVQHVESGRGLVQAGGSLRLSCSASVRIFYNYAMGWYRQAPGKERELVAAISGSGGSTYYADSVKGRFTISRDNAKNSVYLQMNSQKPEDTAVYYCNKAVRRYPRFDYWGQGTQVTVSS | low polyreactivity
22 | QVQHVESRGGLVQAGGSLRLSCAASGFTSDSNAMGWYRQAPGKERELVAAIDSGGGSTYYADSVKGRFTISRDNAKNTVYLQMISLKPEDTAVYYCNAEQTPFVASLRVGEYGYWGQGTQVTVSS | low polyreactivity
23 | QVQHVESRGGLVQAGGSLRLSCAASGRTFQANAMGCYRQAPGKERELVAAITGRGGTTYYADSVKGRFTISRDNAKNTVYLQMNSLKPEDTAVYYCARALSGYGFWGYEYWGQGTQVTVSS | low polyreactivity
24 | QVQHVESRGGLVQAGGSLRLSCAASGRTFVRYAMGWYRQAPGKERELVAAISGDGASTYYADSVKGRFTISRDNAMNTVYLQMNSLKPEDTAVYYCNARSIRRYYYPDYDYWGQGTQVTVSS | high polyreactivity
25 | QVQHVESRGGLVQAGGSLRLSCAASGSIFFAYAMGWDRQGPGKEREFVAAISASGGSTSYADSVKGRFTISRDNAKNTVYLQMNSLKPEDTAVYYCATEHSVTTYDYWGQGTQVTVSS | low polyreactivity
26 | QVQHVESVGGLDQAGVSLRLSSSASGITFSYNAMGCSRQAPGKESEFVAAISSNSDSTYYADSVKGRFTISRDNAKNTVYLQMNSLKPEDTAVYYCAAETPDAPDYSGFYYWGQGTQVTVSS | low polyreactivity
27 | QVQHVESVGGLVQAGGSLRLSCAASGGIFWVYAMGWYRQAPGKERELVAAISNSDTSTSYADSVKGRFTISRDNAKNTVYLQMNSLKPEDTAVYYCNADSPSLSGDYWGQGTQVTVSS | low polyreactivity
28 | QVQHVESVGGLVQAGGSLRLSCAASGRTFGAYDMGWYRQAPGKERELVAAITRSGGSTYYADSVKGRFTISRDNAKNTVYLQMNSLKPEDTAVYYCAARDQVYNYRFGSRGGVYYWGQGTQVTVSS | high polyreactivity
29 | QVQHVESVGGLVQAGGSLRLSCAASGRTLKKNAMGWYRQAPGKERELVAAISTGGRTYYADSVKGRFTISRDNAKNTVYLQMNSLKPEDTAVYYCNFQFLSWSTIWGNDYWGQGTQVTVSS | high polyreactivity
30 | QVQHVESVGGLVQAGGTLRLSCSASGQIFEPYAMGWYRQAPGKERELVAAINSGGSTNYADSVKGRFTISRDNAKNTVYLQMNSLKPEDTAVYYCNKGQNIRQSPGDYWGLGTQVTVSS | low polyreactivity
31 | QVQHVESVVGLVQAGGSLRLSCAASGSTFGPNAMGWSRQAPGKERELVAAITSGGRTYYADSVKGRFTISRDNAKNTVYLQMNSLKPEDTAVYYCAARVSVGVPRYEYWGQGTQVTVSS | high polyreactivity
32 | QVQHVETGGGLVQAGGSLRLSCAASGFIFSQYAMGWYRQAPGKERELVAAISSGSTYADSVKGRVTISRDNAKNTVYLQMNSLKPEDTAVYYCAVDYHQAWPSADYWFEYVYWGQGTQVTVSS | low polyreactivity
33 | QVQHVETGGGLVQAGGSLRLSCAASGRIFSYNAMGWYRQPPGKERELVAAISQRGGRTYYADSVKGRFTISRDNAKNTVYLQMNSLKPEDPAVYDCNKDKGQSLSSYGYWGQGTQVTVSS | high polyreactivity
34 | QVQHVETGGGLVQAGGSLRLSCAATGYTLYRYPMGWYRQAPGKERELVARISYRTGSTYYADSVKGRFTISRDKAKNTVYLQMNSLKPEDTAVYYCAKYPGISGYKYWGQGTQVTVSS | high polyreactivity
35 | QVQHVETGRDLVQAGGSLRLSCAAAGLIFVSYAMGGYRQAPGKERELVASITDSDSSTYYADSVKGRFTISRDNAKNTVYLQMNSLKPEDTAVYYCATGGRTEIWYPTLDYWGQGTQVTVSS | low polyreactivity
36 | QVQIEDSGGGLVQAGGSLRLICAASGFTFINNDMGWYRQAPGKERELVAAISDSDGTTYYADSVKGRFTISRDNAKNTVYLQMNSLKPEDTEVYYCAADVVPTWEDEYWGQGTQVTVSS | low polyreactivity
37 | QVQIEESGGGLVQAGGSLRLSCAASGFTFRWYAMGWSIQAPGKERELVAAIDWSGGSTNYADSVKGRFTISRDNAKNTVYLQMNSLKPEDTAVYYCAAVWRYWYPGFVPYDYWGQGTQVTVSS | high polyreactivity
38 | QVQIEESGGGLVQAGGSLRLSCAASGRIFGSYTMGWSRQAPRKERELVAGISRRGGSTYYADSVKGRFTISRDNAKYTVYLQMNSLTTEDTAVYYCNTLRTNLFFTPLGFDYWGQGTQVTVSS | high polyreactivity
39 | QVQIEESGGGLVQAGGSLRLSCAASGRTFLHKDMGWYRPAPGKERELVAAINVSDGSTYYADSVKGRFTISRDNAKNTVYLQMNSLKPEDTAVYYCAKASYIIFRFEYRSGYDYWGQGTQVTVSS | low polyreactivity
40 | QVQIEESGGGLVQAGGSLRLSCAASGSIFPLYTMGWSRQAPGKERELVAAIDFRGGSTYYADSVKGRFTISRDNAKNSVYLQMNSLKPEDTAVYYCAAAYWAYDTGKMGYWGQGTQVTVSS | low polyreactivity
